T1: CD20 (human, UniProt P11836 1-297)
T1 construct: whole, on cells; also called CD20 on Ramos tumor sections (CD20-positive human Burkitt lymphoma-derived cell line)
T1 sequence (looked up): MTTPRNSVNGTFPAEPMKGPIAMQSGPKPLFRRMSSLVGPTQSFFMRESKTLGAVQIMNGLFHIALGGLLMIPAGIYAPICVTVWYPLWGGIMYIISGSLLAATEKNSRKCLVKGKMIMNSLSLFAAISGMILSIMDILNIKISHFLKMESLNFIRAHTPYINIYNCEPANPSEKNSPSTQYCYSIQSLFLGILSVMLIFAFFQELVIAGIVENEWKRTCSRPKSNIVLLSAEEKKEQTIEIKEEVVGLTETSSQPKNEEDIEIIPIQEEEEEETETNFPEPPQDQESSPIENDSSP


Target: T1, CD20
Test: in vitro autoradiography on frozen Ramos and CCRF-CEM tumor sections
Protocol: Ramos cells of a CD20-positive human Burkitt lymphoma-derived cell line purchased from ATCC (American Type Culture Collection), and CCRF-CEM cells of a CD20-negative human acute lymphoblastic leukemia/T lymphocyte-like cell line were administered subcutaneously to the flanks of female BALB/c nu/nu mice (manufactured by Charles River Laboratories Japan, Inc.) at 5×10⁶ cells to prepare tumor-bearing mice. Thereafter, Ramos tumor and CCRF-CEM tumor were excised and embedded in Tissue-Tek O.C.T. Compound (Sakura Finetek Japan Co., Ltd.) to prepare frozen sections. The radioconjugates obtained in Example 1 and Comparative Example 1 were added to 1% bovine serum albumin-containing PBS each at 1 kBq/mL, and Ramos tumor section and CCRF-CEM tumor section were immersed therein. After contacting the sections with the imaging plate, they were read with a scanner-type image analyzer (Typhoon FLA 7000 manufactured by GE Healthcare Japan) to evaluate the level of radioactivity bound to the sections.

Row | Binder | binding result
1 | radioconjugate (Example 3): conjugate with rituximab by using 89Zr-labeled DOTAGA-DBCO (antibody, human IgG1, kappa, lysine side chain modified with R1 (crosslinker, bonded to the antibody Fc); disulfide between the two cysteines; N-terminal ethyl azide via diglycolic acid and eight PEGs, clicked to DBCO of the 89Zr-DOTAGA-DBCO complex; Fc region site-specifically modified by the peptide of SEQ ID NO: 17 through the crosslinker on its lysine; the peptide carries 89Zr-chelated DOTAGA-DBCO through a click reaction, also called 89Zr complex-labeled antibody) heavy: not shown light: QIVLSQSPAILSASPGEKVTMTCRASSSVSYIHWFQQKPGSSPKPWIYATSNLASGVPVRFSGSGSGTSYSLTISRVEAEDAATYYCQQWTSNPPTFGGGTKLEIKRTVAAPSVFIFPPSDEQLKSGTASVVCLLNNFYPREAKVQWKVDNALQSGNSQESVTEQDSKDSTYSLSSTLTLSKADYEKHKVYACEVTHQGLSSPVTKSFNRGEC peptide: not shown | binds
2 | radioconjugate (Comparative Example 2): conjugate with rituximab by using 89Zr-labeled DOTA-DBCO (antibody, human IgG1, kappa, lysine side chain modified with R1 (crosslinker, bonded to the antibody Fc); disulfide between the two cysteines; N-terminal ethyl azide via diglycolic acid and eight PEGs, clicked to DBCO of the 89Zr-DOTA-DBCO complex; Fc region site-specifically modified by the peptide of SEQ ID NO: 17 through the crosslinker on its lysine; the peptide carries 89Zr-chelated DOTA-DBCO through a click reaction) heavy: not shown light: QIVLSQSPAILSASPGEKVTMTCRASSSVSYIHWFQQKPGSSPKPWIYATSNLASGVPVRFSGSGSGTSYSLTISRVEAEDAATYYCQQWTSNPPTFGGGTKLEIKRTVAAPSVFIFPPSDEQLKSGTASVVCLLNNFYPREAKVQWKVDNALQSGNSQESVTEQDSKDSTYSLSSTLTLSKADYEKHKVYACEVTHQGLSSPVTKSFNRGEC peptide: not shown | binds

Reference: US20240207464A1 (NIHON MEDI PHYSICS, published 2024)
